Here are results for seven molecules from patent US20260174847A1, “METHODS OF TREATING DIGESTIVE DISEASES AND COMPOSITIONS THEREOF” (PTM Therapeutics, Inc., priority 2023, published 2026).

Experiment [1] is described as follows: SPR (Biocore T100) binding affinity to sLeA. As to conditions: Example 3, Table 7, mean. Here is the method: (§1) An in vitro evaluation of the binding affinity to sLeA and sLeC of the humanized antibodies from Example 1 were performed using a Biocore T100 SPR biosensor using a CM7 sensor chip with PBS-p (0.005% Tween-20) running buffer at 25 degrees Celsius. The antibodies were couples to ˜30,000 RU at 50 ug/ml in 10 mM NaAcetate pH 5.0 over an NHS/EDC activated surface. A reference surface was activated and blocked to serve as a control. Carbohydrate samples (sLeA, sLeC and sialyl Lewis X (all from Dextra Labs)) were dissolved in PBS-p running buffer up to a stock concentration of 10 mM. Each was then prepared in a 2-fold dilution series up to 300 μM and each concentration series was tested over the antibody surfaces. Response data were processed by subtracting the responses from the reference surfaces as well as a buffer injection. Binding constants were determined at 25 degrees Celsius.
(§2) Seven of the humanized antibody clones from Example 1 were tested for binding affinity to sLeA, sLeC and […]. Methods used were similar to those described in Example 2 above, except with sLeX only at one concentration of 300 μM.

A short description of experiment [2]: SPR (Biocore T100) binding affinity to sLeC. As to conditions: Example 3, Table 7, mean. On the procedure:
as §1, §2

B1: Clone 4770: Humanized IgG1 antibody, heavy chain variable region HvCh3 (SEQ ID NO: 3), light chain LiCh2 (SEQ ID NO: 6) (antibody, V domains shown)
VH: EVQLVESGGGLVQPGGSLRLSCAASGFTFSTNAMSWVRQAPGKGLEWVARLRPKSDNYATYYADSVKGRFTISRDDSKNTLYLQMNSLRAEDTAVYYCVTGTGFWGQGTTLTVSS
VL: DIVMTQSPDSLAVSLGERVTMNCKSSQSLLNSGNQKNYLTWYQQKPGQPPKLLIYWTSTRESGVPDRFSGSGSGTDFTLTISSVQAEDVAVYYCQNDYTSPYTFGQGTKLEIK
Usually Kd stands for the free concentration of one partner at which half of the binding sites on the other are occupied at equilibrium, for simple one-to-one binding. Turning to B1, the Kd in experiment [1] was determined as 69.1 µM; in experiment [2], 93.2 µM.

B2: Clone 4772: Humanized IgG1 antibody, heavy chain variable region HvCh3 (SEQ ID NO: 3), light chain LiCh4 (SEQ ID NO: 8) (antibody, V domains shown)
VH: EVQLVESGGGLVQPGGSLRLSCAASGFTFSTNAMSWVRQAPGKGLEWVARLRPKSDNYATYYADSVKGRFTISRDDSKNTLYLQMNSLRAEDTAVYYCVTGTGFWGQGTTLTVSS
VL: DIVMTQSPDSLAVSLGERVTMNCKSSQSLLNSGNQKNYLTWYQQKPGQPPKLLFYWTSTRESGVPDRFSGSGSGTDFTLTISSVQAEDVAVYYCQNDYTSPYTFGQGTKLEIK
For the molecule B2, the figures for the Kd in experiment [1] and in experiment [2] were 48.3 µM and 77.1 µM, respectively.

B3: Clone 4765: Humanized IgG1 antibody, heavy chain variable region HvCh2 (SEQ ID NO: 2), light chain LiCh1 (SEQ ID NO: 5) (antibody, V domains shown)
VH: EVQLVESGGGLVQPGGSLRLSCAASGFTFSTNAMSWVRQAPGKGLEWVARLRPKSDNYATYYADSVKGRFTISRDNSKNTLYLQMNSLRAEDTAVYYCVTGTGFWGQGTTLTVSS
VL: DIVMTQSPDSLAVSLGERATINCKSSQSLLNSGNQKNYLTWYQQKPGQPPKLLIYWTSTRESGVPDRFSGSGSGTDFTLTISSLQAEDVAVYYCQNDYTSPYTFGQGTKLEIK
For the molecule B3, the dissociation constant Kd is 732 µM in experiment [1] and 306 µM in experiment [2].

B4: Clone 4769: Humanized IgG1 antibody, heavy chain variable region HvCh3 (SEQ ID NO: 3), light chain LiCh1 (SEQ ID NO: 5) (antibody, V domains shown)
VH: EVQLVESGGGLVQPGGSLRLSCAASGFTFSTNAMSWVRQAPGKGLEWVARLRPKSDNYATYYADSVKGRFTISRDDSKNTLYLQMNSLRAEDTAVYYCVTGTGFWGQGTTLTVSS
VL: DIVMTQSPDSLAVSLGERATINCKSSQSLLNSGNQKNYLTWYQQKPGQPPKLLIYWTSTRESGVPDRFSGSGSGTDFTLTISSLQAEDVAVYYCQNDYTSPYTFGQGTKLEIK
B4: the dissociation constant (Kd) amounted to 81.3 µM in experiment [1] and 104 µM in experiment [2].

B5: Clone 4771: Humanized IgG1 antibody, heavy chain variable region HvCh3 (SEQ ID NO: 3), light chain LiCh3 (SEQ ID NO: 7) (antibody, V domains shown)
VH: EVQLVESGGGLVQPGGSLRLSCAASGFTFSTNAMSWVRQAPGKGLEWVARLRPKSDNYATYYADSVKGRFTISRDDSKNTLYLQMNSLRAEDTAVYYCVTGTGFWGQGTTLTVSS
VL: DIVMTQSPDSLAVSLGERATINCKSSQSLLNSGNQKNYLTWYQQKPGQPPKLLFYWTSTRESGVPDRFSGSGSGTDFTLTISSLQAEDVAVYYCQNDYTSPYTFGQGTKLEIK
For B5, the dissociation constant (Kd) stood at 59.2 µM in experiment [1] and 85.4 µM in experiment [2].

B6: Clone 4768: Humanized IgG1 antibody, heavy chain variable region HvCh2 (SEQ ID NO: 2), light chain LiCh4 (SEQ ID NO: 8) (antibody, V domains shown)
VH: EVQLVESGGGLVQPGGSLRLSCAASGFTFSTNAMSWVRQAPGKGLEWVARLRPKSDNYATYYADSVKGRFTISRDNSKNTLYLQMNSLRAEDTAVYYCVTGTGFWGQGTTLTVSS
VL: DIVMTQSPDSLAVSLGERVTMNCKSSQSLLNSGNQKNYLTWYQQKPGQPPKLLFYWTSTRESGVPDRFSGSGSGTDFTLTISSVQAEDVAVYYCQNDYTSPYTFGQGTKLEIK
As for B6, the Kd in experiment [1] is 552 µM; in experiment [2], 460 µM.

B7: Clone 4766: Humanized IgG1 antibody, heavy chain variable region HvCh2 (SEQ ID NO: 2), light chain LiCh2 (SEQ ID NO: 6) (antibody, V domains shown)
VH: EVQLVESGGGLVQPGGSLRLSCAASGFTFSTNAMSWVRQAPGKGLEWVARLRPKSDNYATYYADSVKGRFTISRDNSKNTLYLQMNSLRAEDTAVYYCVTGTGFWGQGTTLTVSS
VL: DIVMTQSPDSLAVSLGERVTMNCKSSQSLLNSGNQKNYLTWYQQKPGQPPKLLIYWTSTRESGVPDRFSGSGSGTDFTLTISSVQAEDVAVYYCQNDYTSPYTFGQGTKLEIK
B7: the dissociation constant Kd was determined as 621 µM in experiment [1] and 538 µM in experiment [2].
